# From WO2013087874A1 (dated 2013)
# B1: VHH L-14 (#2622, SEQ ID NO:2) (VHH)
# VHH: DVQLQASGGGLVPAGGSLRLSCAASGHSFSSLDMAWFRQAPGREREFVAQISWSGSHTYYQDAVKGRFTISRDSAKNTGYLQMTNLKPEDTAVYYCAATYRPNTFTPAEYDYWGQGTQVTVSA
# B2: VHH L-15a (#2169, SEQ ID NO:3) (VHH)
# VHH: DVQLQESGGGLVQAGGSLRLSCAASRSLRSIAVMGWFRQAPGKQREYVARITSGGYTDYADSVKGRFTIFDDSANNTVYLQMTSLKPEDTAVYHCAAGGFTEAYSGTYYPDSWGQGTQVTVSS
# B3: VHH L+18a (#2173, SEQ ID NO:5) (VHH)
# VHH: DVQLQASGGGLVQAGGSMRLSCAASGFTFDEFAIGWFRQAPGKEREAVSCIRSSDGSTWYADSVKGRFTISSDNAKNTVTLRMNSLKPEDTADYTCAALGSGYGCSLFTTTVGMDYWGKGTLVTVSS
# B4: VHH S-20a (#2352, SEQ ID NO:11) (VHH)
# VHH: DVQLQASGGGLVQAGDSLRLSCSASGLTFSSYAMGWFRQAPGKEREFVAAISWANGGSTVYADPVKGRFTISRDNAKNTVYLQMNSLKPEDTAVYSCAAADQRVGYIEYYSGSSGKEYDYWGQGTQVTVSS
# Molecular target: T1, ToxA-Holotoxin of Clostridium difficile (Clostridium difficile, UniProt P16154 1-2710)
# T1 construct: also called Toxin A
# T1 sequence (P16154 whole entry): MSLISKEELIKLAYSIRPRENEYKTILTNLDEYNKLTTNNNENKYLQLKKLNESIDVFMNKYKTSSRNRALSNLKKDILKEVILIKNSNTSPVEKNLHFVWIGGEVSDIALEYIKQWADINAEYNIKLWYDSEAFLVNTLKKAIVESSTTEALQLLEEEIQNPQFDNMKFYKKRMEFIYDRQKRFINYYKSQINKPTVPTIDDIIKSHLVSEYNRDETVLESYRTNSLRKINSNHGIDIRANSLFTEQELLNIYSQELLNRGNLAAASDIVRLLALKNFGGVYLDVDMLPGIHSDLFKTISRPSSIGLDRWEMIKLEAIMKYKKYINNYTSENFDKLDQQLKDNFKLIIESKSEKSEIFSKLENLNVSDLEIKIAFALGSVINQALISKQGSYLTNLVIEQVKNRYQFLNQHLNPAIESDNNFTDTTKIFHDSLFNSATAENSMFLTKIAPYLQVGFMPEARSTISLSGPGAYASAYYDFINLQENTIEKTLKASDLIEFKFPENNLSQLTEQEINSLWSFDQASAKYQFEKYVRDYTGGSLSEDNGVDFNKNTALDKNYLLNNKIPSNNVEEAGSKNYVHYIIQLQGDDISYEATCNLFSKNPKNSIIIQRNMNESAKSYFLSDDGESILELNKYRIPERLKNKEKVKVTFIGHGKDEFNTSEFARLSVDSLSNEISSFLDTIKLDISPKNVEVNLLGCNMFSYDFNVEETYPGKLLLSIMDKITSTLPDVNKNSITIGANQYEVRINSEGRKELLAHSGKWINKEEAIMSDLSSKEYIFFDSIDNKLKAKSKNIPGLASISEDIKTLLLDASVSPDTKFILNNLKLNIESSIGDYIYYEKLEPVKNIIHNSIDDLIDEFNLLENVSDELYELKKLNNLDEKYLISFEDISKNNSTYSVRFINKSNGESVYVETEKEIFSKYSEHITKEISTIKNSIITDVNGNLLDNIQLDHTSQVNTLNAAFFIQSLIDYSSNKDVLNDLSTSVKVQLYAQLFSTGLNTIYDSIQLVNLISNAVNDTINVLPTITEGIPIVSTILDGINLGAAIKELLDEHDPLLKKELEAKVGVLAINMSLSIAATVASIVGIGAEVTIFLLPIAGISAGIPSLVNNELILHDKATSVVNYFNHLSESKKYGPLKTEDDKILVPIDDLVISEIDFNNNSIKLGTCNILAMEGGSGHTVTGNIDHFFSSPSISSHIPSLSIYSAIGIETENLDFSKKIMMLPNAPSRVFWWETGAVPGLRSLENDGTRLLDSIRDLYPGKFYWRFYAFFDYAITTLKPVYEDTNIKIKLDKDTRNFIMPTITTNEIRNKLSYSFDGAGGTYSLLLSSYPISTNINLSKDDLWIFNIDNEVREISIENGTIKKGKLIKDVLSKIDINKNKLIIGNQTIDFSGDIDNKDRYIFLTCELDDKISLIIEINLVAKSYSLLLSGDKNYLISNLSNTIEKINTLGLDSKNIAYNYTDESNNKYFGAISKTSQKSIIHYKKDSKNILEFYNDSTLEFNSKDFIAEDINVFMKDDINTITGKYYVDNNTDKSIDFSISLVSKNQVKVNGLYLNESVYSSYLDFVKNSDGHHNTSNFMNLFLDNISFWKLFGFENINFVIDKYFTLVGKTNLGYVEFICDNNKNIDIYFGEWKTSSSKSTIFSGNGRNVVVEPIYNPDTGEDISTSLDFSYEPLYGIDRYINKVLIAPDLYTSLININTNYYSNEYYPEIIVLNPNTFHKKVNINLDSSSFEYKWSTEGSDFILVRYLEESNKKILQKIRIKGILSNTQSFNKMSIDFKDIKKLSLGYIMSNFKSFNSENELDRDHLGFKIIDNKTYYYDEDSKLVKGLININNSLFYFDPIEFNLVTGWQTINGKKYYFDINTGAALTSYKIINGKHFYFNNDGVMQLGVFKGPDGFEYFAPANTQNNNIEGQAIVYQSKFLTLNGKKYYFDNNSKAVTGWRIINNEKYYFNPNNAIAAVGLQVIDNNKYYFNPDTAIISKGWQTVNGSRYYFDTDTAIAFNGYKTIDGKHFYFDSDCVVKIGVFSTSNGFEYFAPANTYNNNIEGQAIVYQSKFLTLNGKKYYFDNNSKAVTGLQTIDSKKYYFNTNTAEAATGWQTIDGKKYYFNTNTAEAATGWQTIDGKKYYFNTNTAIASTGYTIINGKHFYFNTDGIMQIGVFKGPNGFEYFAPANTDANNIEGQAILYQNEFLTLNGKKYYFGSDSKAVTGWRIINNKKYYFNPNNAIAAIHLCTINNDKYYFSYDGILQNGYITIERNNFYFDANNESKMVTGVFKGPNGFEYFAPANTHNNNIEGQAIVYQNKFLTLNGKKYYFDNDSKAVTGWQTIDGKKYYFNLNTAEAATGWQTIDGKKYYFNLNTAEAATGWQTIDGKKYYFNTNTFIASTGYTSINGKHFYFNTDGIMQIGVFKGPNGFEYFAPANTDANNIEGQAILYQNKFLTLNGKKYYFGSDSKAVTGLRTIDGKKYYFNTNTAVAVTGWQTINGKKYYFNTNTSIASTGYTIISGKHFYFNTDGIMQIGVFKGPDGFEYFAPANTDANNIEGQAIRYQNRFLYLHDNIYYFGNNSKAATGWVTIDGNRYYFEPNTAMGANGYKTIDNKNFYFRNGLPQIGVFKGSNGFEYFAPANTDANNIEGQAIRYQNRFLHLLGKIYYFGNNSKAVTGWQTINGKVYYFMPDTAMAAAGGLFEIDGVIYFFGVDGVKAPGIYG
# Assay: ELISA, monovalent VHH on coated antigen, anti-myc detection
row,Binder,binding result
1,B1,no binding (tested: 8-1000 ng VHH)
2,B2,no binding (tested: 8-1000 ng VHH)
3,B3,no binding (tested: 8-1000 ng VHH)
4,B4,no binding (tested: 8-1000 ng VHH)
